Results reported in publication PMC6238587, “Molecular analysis of human Ero1 reveals novel regulatory mechanisms for oxidative protein folding” (Life Science Alliance, 2018).
Positions count from the first letter of the chain named. Names and notes keep the numbering of the source.

T1: human Ero1α C104A/C131A, N-terminal His tag (human, UniProt Q96HE7 24-468, C104A | C131A)
T1 construct: human Ero1α, mature, residues E24-H468; also called CCAA (h.a.); source: E. coli BL21(DE3)ΔtrxAΔtrxC with CyDisCo (Erv1p, PDI) co-expressed; in lysate, and purified
T1 sequence (looked up): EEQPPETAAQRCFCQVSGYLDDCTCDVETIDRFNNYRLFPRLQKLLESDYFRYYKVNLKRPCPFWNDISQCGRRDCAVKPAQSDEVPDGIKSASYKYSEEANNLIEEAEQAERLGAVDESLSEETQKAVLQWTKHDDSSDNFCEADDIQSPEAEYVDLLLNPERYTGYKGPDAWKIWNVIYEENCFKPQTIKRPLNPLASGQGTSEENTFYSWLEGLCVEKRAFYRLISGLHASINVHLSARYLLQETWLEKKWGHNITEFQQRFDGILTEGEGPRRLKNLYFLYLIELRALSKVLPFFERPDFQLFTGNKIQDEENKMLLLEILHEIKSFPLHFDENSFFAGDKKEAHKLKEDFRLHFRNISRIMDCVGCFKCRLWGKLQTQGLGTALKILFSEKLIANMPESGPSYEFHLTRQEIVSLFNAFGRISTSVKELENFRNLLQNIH

T2: human Ero1β C100/130A, N-terminal His tag (human, UniProt Q86YB8 34-467, D129V | H465Q | C100/130A | C100/130A)
T2 construct: human Ero1β, mature, residues Q34-R467, natural D129V and H465Q variant; also called CCAA (h.a.); source: E. coli BL21(DE3)ΔtrxAΔtrxC with CyDisCo (Erv1p, PDI) co-expressed; in lysate, and purified
T2 sequence (looked up): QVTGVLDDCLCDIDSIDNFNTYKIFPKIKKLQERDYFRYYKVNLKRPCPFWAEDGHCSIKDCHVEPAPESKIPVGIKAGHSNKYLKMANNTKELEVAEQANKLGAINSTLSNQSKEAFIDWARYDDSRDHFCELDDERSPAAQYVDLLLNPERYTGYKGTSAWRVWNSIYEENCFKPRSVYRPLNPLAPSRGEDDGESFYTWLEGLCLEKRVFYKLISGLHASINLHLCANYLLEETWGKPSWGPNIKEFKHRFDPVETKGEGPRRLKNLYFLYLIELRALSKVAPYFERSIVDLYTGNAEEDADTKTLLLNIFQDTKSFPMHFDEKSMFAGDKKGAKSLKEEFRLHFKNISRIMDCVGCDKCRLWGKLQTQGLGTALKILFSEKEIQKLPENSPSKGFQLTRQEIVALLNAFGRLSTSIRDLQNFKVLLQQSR

B1: human Ero1β, wild type, N-terminal His tag (Q34-R467, natural D129V and H465Q variant) (enzyme, UniProt Q86YB8 34-467, looked up)
chain: T2 sequence (looked up) with A67C, A97C
modifications: (phospho)gluconoylation of the N-terminal His tag, gluconoylated species the major state
notes: human Ero1β, mature, residues Q34-R467, natural D129V and H465Q variant; With co-expressed PDI it purifies as a heterodimer; also called CCCC; source: E. coli BL21(DE3)ΔtrxAΔtrxC with CyDisCo components co-expressed; in lysate, and purified (cobalt IMAC, anion exchange, size exclusion)
B2: human protein disulfide isomerase (PDI), wild type, co-expressed CyDisCo component (enzyme)
chain: not shown
notes: human PDI, wild-type codon-optimized gene of the CyDisCo plasmid pMJS205; also called wild-type PDI; source: E. coli BL21(DE3)ΔtrxAΔtrxC, co-expressed with Ero1 from pMJS205; in lysate, and co-purified with His-tagged Ero1
B3: human PDI, wild type, non-tagged, purified (enzyme)
chain: not shown
B4: human PDI with three consecutive FLAG tag sequences inserted before the ER retention signal, non-His-tagged (enzyme)
chain: not shown
notes: human PDI, mature, codon-optimized; residues after the TEV site probably stay on the protein; also called PDI3FLAG; source: E. coli, purified (cobalt IMAC, TEV protease cleavage, anion exchange); not shown: 3xFLAG, internal (after residue 503), kept; His6, N-terminal, cleaved
B5: human Ero1α, wild type, N-terminal His tag (E24-H468) (enzyme, UniProt Q96HE7 24-468, looked up)
chain: T1 sequence (looked up) with A81C, A108C
modifications: (phospho)gluconoylation of the N-terminal His tag, gluconoylated species the major state
notes: human Ero1α, mature, residues E24-H468; With co-expressed PDI it purifies as a heterodimer; also called endoplasmic reticulum oxidoreductin 1 alpha; CCCC; source: E. coli BL21(DE3)ΔtrxAΔtrxC with CyDisCo components co-expressed; in lysate, and purified (cobalt IMAC, anion exchange, size exclusion)
B6: human PDIp, non-tagged (enzyme, UniProt Q13087 22-525, looked up)
chain: QEQGARSPSEEPPEEEIPKEDGILVLSRHTLGLALREHPALLVEFYAPWCGHCQALAPEYSKAAAVLAAESMVVTLAKVDGPAQRELAEEFGVTEYPTLKFFRNGNRTHPEEYTGPRDAEGIAEWLRRRVGPSAMRLEDEAAAQALIGGRDLVVIGFFQDLQDEDVATFLALAQDALDMTFGLTDRPRLFQQFGLTKDTVVLFKKFDEGRADFPVDEELGLDLGDLSRFLVTHSMRLVTEFNSQTSAKIFAARILNHLLLFVNQTLAAHRELLAGFGEAAPRFRGQVLFVVVDVAADNEHVLQYFGLKAEAAPTLRLVNLETTKKYAPVDGGPVTAASITAFCHAVLNGQVKPYLLSQEIPPDWDQRPVKTLVGKNFEQVAFDETKNVFVKFYAPWCTHCKEMAPAWEALAEKYQDHEDIIIAELDATANELDAFAVHGFPTLKYFPAGPGRKVIEYKSTRDLETFSKFLDNGGVLPTEEPPEEPAAPFPEPPANSTMGSKEEL

Tests used:
[1] = molecular target: B4; assay: pull-down; PDI exchange assay with the redox state of both components fixed by GSSG before mixing; details: both partners purified
[2] = molecular target: B3; assay: pull-down; PDI exchange assay: 1 μM His-tagged Ero1–PDI heterodimer with non-His-tagged PDI, PDI3FLAG or other PDI family member (1:1 or 10:1), 1 h at RT, 20 mM sodium phosphate pH 7.3, 150 mM NaCl; Ni-NTA spin columns with 10 mM imidazole; reducing SDS–PAGE; details: both partners purified
[3] = molecular target: B5; assay: pull-down; His-tagged Ero1 co-expressed with untagged PDI (CyDisCo) in E. coli; large-scale purification by cobalt IMAC, anion exchange and size-exclusion chromatography; SDS–PAGE; details: partners not purified
[4] = molecular target: B1; assay: as above; details: partners not purified
[5] = molecular target: T1, human Ero1α C104A/C131A, N-terminal His …; assay: as above; details: partners not purified
[6] = molecular target: T2, human Ero1β C100/130A, N-terminal His …; assay: as above; details: partners not purified
[7] = molecular target: His-tagged Ero1α–PDI heterodimer (human, UniProt Q96HE7 24-468; P07237 18-508, (phospho)gluconoylation of the N-terminal His tag, gluconoylated species the major state); assay: cell-based or functional assay
[8] = molecular target: His-tagged Ero1β–PDI heterodimer (human, UniProt Q86YB8 34-467; P07237 18-508, D129V | H465Q, (phospho)gluconoylation of the N-terminal His tag, gluconoylated species the major state); assay: cell-based or functional assay
[9] = molecular target: B5; assay: pull-down; PDI exchange assay: 1 μM His-tagged Ero1–PDI heterodimer with non-His-tagged PDI, PDI3FLAG or other PDI family member (1:1 or 10:1), 1 h at RT, 20 mM sodium phosphate pH 7.3, 150 mM NaCl; Ni-NTA spin columns with 10 mM imidazole; reducing SDS–PAGE; details: both partners purified
[10] = molecular target: B1; assay: as above; details: both partners purified

His-tagged Ero1β–PDI heterodimer, sequence (P07237 18-508, stated change not applied, one chain of several): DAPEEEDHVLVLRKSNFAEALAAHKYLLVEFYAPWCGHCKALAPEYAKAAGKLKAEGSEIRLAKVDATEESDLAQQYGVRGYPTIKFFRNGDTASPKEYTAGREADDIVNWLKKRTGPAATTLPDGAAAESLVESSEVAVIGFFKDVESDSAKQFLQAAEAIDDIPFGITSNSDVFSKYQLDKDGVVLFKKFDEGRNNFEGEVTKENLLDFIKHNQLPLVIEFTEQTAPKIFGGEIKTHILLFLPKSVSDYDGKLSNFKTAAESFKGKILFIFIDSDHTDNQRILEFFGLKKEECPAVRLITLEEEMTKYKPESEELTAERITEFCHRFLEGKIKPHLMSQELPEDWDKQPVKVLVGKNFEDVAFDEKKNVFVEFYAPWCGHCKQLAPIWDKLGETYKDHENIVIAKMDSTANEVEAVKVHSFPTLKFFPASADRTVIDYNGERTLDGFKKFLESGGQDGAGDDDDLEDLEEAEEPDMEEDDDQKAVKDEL
His-tagged Ero1α–PDI heterodimer, sequence (P07237 18-508, one chain of several): as the sequence (P07237 18-508, stated change not applied, one chain of several) above

Binder: B1
- binding result [1]: binds
- binding result [2]: binds

Binder: B2
- stoichiometry N [3]: ~1 PDI per Ero1
- stoichiometry N [4]: ~1 PDI per Ero1
- stoichiometry N [5]: 1 PDI per Ero1
- stoichiometry N [6]: 1 PDI per Ero1

Binder: B3
- acceleration of kcat of oxygen consumption by 10 μM external PDI [7]: 7.1 fold
- acceleration of kcat of oxygen consumption by 10 μM external PDI [8]: 4.8 fold

Binder: B4
- ratio of co-purified PDI3FLAG to wild-type PDI (PDI3FLAG added 1:1) [9]: ~1 PDI3FLAG per wild-type PDI
- wild-type PDI left in the complex with 10-fold PDI3FLAG, percent of the original [9]: ~10%
- ratio of co-purified PDI3FLAG to wild-type PDI (PDI3FLAG added 1:1) [10]: ~1 PDI3FLAG per wild-type PDI
- wild-type PDI left in the complex with 10-fold PDI3FLAG, percent of the original [10]: ~10%

Binder: B5
- binding result [1]: binds
- binding result [2]: binds

Binder: B6
- acceleration of kcat of oxygen consumption by 10 μM external PDIp [8]: 3.7 fold
